Positions count from the first letter of the chain named.
T1: human 5T4 (human, UniProt Q13641 32-355, limits assumed)
T1 construct: also called hu5T4
T1 sequence (looked up): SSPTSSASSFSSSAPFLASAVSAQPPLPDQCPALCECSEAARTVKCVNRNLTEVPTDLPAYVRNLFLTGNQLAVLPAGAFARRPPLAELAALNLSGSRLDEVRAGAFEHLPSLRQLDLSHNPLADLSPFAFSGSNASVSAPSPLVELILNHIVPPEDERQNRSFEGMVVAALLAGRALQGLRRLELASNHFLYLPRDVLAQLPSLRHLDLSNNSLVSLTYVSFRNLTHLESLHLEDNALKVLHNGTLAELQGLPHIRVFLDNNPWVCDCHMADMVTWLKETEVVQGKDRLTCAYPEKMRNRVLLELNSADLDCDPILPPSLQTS

T2: human OX40 protein (human, UniProt P43489 29-216, limits assumed)
T2 sequence (looked up): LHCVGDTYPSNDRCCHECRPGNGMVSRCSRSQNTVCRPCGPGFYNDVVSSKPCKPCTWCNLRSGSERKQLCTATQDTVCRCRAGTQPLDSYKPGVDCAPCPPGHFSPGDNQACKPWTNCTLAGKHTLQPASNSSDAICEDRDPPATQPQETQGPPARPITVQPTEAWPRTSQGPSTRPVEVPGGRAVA

B1: 286B4 anti-5T4 mouse monoclonal antibody (antibody, V domains shown)
VH: DVQLHESGPGLVKPSQSLSLTCSVTGYSITNNYYWNWIRQFPGNNLEWMGYITYDGSNNYNPSLKNRISVTRDTSKNQFFLKLSSVTTEDTATYYCTRGGGQLRFDYWGQGTTLTVSS
VL: SIVMTQTPKFLIVSAGDRVTITCKASQSVSNEVTWYQQKPGQSPKMLIYYASNRYTGVPDRFTGSGYGTDFTFTINTVQAEDLAIYFCQQDYSSPWTFGGGTKLEIK
notes: Mouse monoclonal antibody from hybridoma
B2: 159D5 anti-5T4 mouse monoclonal antibody (antibody, V domains shown)
VH: DVQLVESGGGLVQPGGSRKLSCTASGFTFSNFGMHWVRQAPETGLEWVAYISSGSSTFYYADSVKGRFTISRDNPKNTLFLQMTSLRSEDTAMYFCARSPAYYRYGLDYWGQGTTLTVSS
VL: DIVLTQSPASLAVSLGQRATISCRASQSVSSSTFSYMHWYQQKPGQPPKLLIKSSSNLESGVPARFSGSGSGTDFTLNIHPVEEEDTATYYCQHSWEIPYTFGGGTKLEIK
notes: as for B1
B3: 14G12 anti-5T4 mouse monoclonal antibody (antibody, V domains shown)
VH: EVQLQQSGPELVKPGASVKISCKASGYAFSSSWMNWVKQRPGKGLEWIGRIYREDGHTNYNGKFKGKATLTADKSSTTAYMQLTSLTSEDSAVYFCANGGAMDYWGQGTSVTVSS
VL: DIQMTQSTSSLSASLGDRVTISCRASQDISNYLNWYQQKPDGTVKLLIYYTSRLHSGVPSRFSGSGSGTDYSLTISNLEQEDIATYFCQQDNTLPWTFGGGTKLEIK
notes: as for B1
B4: 2p834 chimeric monospecific antibody (antibody, V domains shown)
VH: QSQLVESGGGLVQPGGSLRLSCAASGFAFRRYTMSWVRQAPGKGLEWVSTITHNGSITTYAESAQGRFTISRDNAKNTLYLQMNSLKPEDTAVYYCAQGGGSNYYRESWGQGTQVTVSS
notes: Chimeric monospecific antibody
B5: 3p78 chimeric monospecific antibody (antibody, V domains shown)
VH: B4 VH with Q1P, S2V, A28T, R31N, T33A, S56A
notes: as for B4
B6: 2p80 chimeric monospecific antibody (antibody, V domains shown)
VH: QLQLVESGGGLVQAGGSLRLSCAASGRIFSSYAMSWFRQAPGKEREFVATIGWIGENTYYADSVKGRFTISRDNAKNTLYLQMNSLKPEDTAVYYCAAGLPANRYYDYWGQGTQVTVSS
notes: Chimeric monospecific antibody; also called 2p80 cAb
B7: 2p931 chimeric monospecific antibody (antibody, V domains shown)
VH: AVQLVESGGGLVQPGGSLRLSCAASGFSFRNYMMNWVRQAPGKGLECLSSITSAGDITSYTESVKGRFTISRDNAKNTLYLQMNSLKPEDTAVYYCAQGGCGNYYRESWGQGTQVTVSS
notes: as for B4
B8: 393E9 anti-5T4 mouse monoclonal antibody (antibody, V domains shown)
VH: EVKLVESGGGLVQPGGSLSLSCAASGFTFTDYYMSWVRQPPGKALEWLGFIRNKGNGYTTENSASVKGRFTISRDNSQSILYLQMNALRAEDSATYYCARYRGNPHYAMDYWGQGTSVTVSS
VL: DIVLTQFPASLAVSLGQRATISCRASESVEFYGTSFLQWYQQKPGQPPKLLIYGASNVESGVPARFSGSGSGTDFSLSIHPVEEDDIAMYFCQQSRKVPSTFGGGTKLEIK
notes: as for B1
B9: b16 (42p155z2)-LALA humanized anti-5T4/CD40 bispecific antibody (bispecific antibody, human IgG1, kappa, L234A L235A)
heavy 1: QVQLVQSGAEVKKPGASVKVSCKASGYAFSSSWMNWVRQAPGQGLEWMGRIYREDGHTNYNGKFKGRVTMTADKSITTAYMELSRLRSDDTAVYYCANGGAMDYWGQGTLVTVSSASTKGPSVFPLAPSSKSTSGGTAALGCLVKDYFPEPVTVSWNSGALTSGVHTFPAVLQSSGLYSLSSVVTVPSSSLGTQTYICNVNHKPSNTKVDKKVEPKSCDKTHTCPPCPAPEAAGGPSVFLFPPKPKDTLMISRTPEVTCVVVDVSHEDPEVKFNWYVDGVEVHNAKTKPREEQYNSTYRVVSVLTVLHQDWLNGKEYKCKVSNKALPAPIEKTISKAKGQPREPQVCTLPPSREEMTKNQVSLSCAVKGFYPSDIAVEWESNGQPENNYKTTPPVLDSDGSFFLVSKLTVDKSRWQQGNVFSCSVMHEALHNHYTQKSLSLSPGK
light: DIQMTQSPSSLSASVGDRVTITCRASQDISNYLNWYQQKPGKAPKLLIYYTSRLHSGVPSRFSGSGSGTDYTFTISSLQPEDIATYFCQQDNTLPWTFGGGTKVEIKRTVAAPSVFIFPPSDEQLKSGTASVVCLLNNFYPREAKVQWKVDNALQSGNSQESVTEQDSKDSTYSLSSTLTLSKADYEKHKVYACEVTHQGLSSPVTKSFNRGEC
heavy 2: not shown

What was measured:
[1] = target: T1, human 5T4; assay: competitive ELISA on human 5T4
[2] = target: T3, human CD40-His protein (human, UniProt P25942 21-193); assay: ELISA, plate-coated human CD40-His
T3 construct: His-tagged recombinant protein; also called human CD40-his tag; recombinant CD40 protein
Protocol: (§1) To evaluate the binding activity of clones 42p155, 2p834, 2p931, 42p655, 2p1294, 2p957, 42p495, 3p78, 2p415, 2p442, 2p551, 2p80 and 2p1130, the chimeric monospecific antibody (mAb) from these clones were subjected to ELISA test, along with selicrelumab, the clinical benchmark anti-CD40 agonist antibodies.
(§2) Briefly, microtiter plates were coated with human CD40-His protein at 1.0 μg/ml in PBS, 100 μl/well at 4° C. overnight, then blocked with 150 µl/well of 1% BSA. Ten-fold dilutions of 42p155, 2p834, 2p931, 42p655, 2p1294, 2p957, 42p495, 3p78, 2p415, 2p442, 2p551, 2p80 and 2p1130 antibodies starting from 100 nM were added to each well and incubated for 1 hour at RT. The plates were washed with PBS/Tween and then incubated with Anti-Human IgG (H&L) (GOAT) Antibody Peroxidase Conjugated for 30 mins at RT. After washing, the plates were developed with TMB substrate and analyzed by spectrophotometer at OD 450 nm.

[3] = target: T4, cynomolgus CD40-His protein (cynomolgus, UniProt G7PG38 21-193); assay: ELISA, plate-coated cynomolgus CD40-His
T4 construct: His-tagged recombinant protein; also called cyno CD40 antigen
Protocol: as §1
as §2, with “The binding affinity of these clones to cynomolgus CD40 was also tested. Microtiter” for “Briefly, microtiter”, “cynomolgus” for “human”, “µl/well” for “μl/well”, “nm. As shown in FIG. 1B and Table 2, all these clones bound to cynomolgus CD40 at high activity, showing good cross-reactivity between human and cynomolgus CD40 proteins.” for “nm.”

[4] = target: T2, human OX40 protein; assay: ELISA, plate-coated protein
Protocol: (§3) To evaluate the cross reactivity of chimeric anti-CD40 antibodies to other family members of TNF receptors, the ELISA binding towards human 4-1BB and human OX40 were performed.
as §2, with “4-1BB protein or human OX40” for “CD40-His”, “1” for “1.0”, “μl/well” for “µl/well”

[5] = target: T5, human 4-1BB protein (human, UniProt Q07011 24-186); assay: ELISA, plate-coated protein
T5 construct: also called 4-IBB
Protocol: as §3
as §2, with “4-1BB protein or human OX40” for “CD40-His”, “1” for “1.0”, “μl/well” for “µl/well”

[6] = target: T6, human CD40 on the cell surface (human, UniProt P25942 21-277); assay: FACS, Jurkat cells overexpressing human CD40, PE anti-human IgG, MFI
T6 construct: whole, on cells; also called cell surface CD40; Jurkat-CD40
Protocol: To evaluate their binding affinity to cell surface CD40, chimeric anti-CD40 monospecific antibodies were tested in Jurkat cell lines that overexpressed CD40 by FACS. A total number of 1×10⁵ Jurkat-CD40 cells in each well were incubated with 10-fold serially diluted antibodies starting from 100 nM for 30 minutes at 4° C. in FACS buffer. After wash by FACS buffer, PE conjugated-anti-human IgG antibody was added to each well and incubated at 4° C. for 30 minutes. After wash, MFI of PE was evaluated by MACSQuant Analyzer 16.

[7] = target: T6, human CD40 on the cell surface; assay: cell-based or functional assay
[8] = target: T3, human CD40-His protein; assay: SPR Biacore T200, antibody captured on Protein A, CD40-His as analyte
Protocol: Bispecific antibodies with each of the 42p155, 2p834, 2p931, 42p655, 2p1294, 2p957, 42p495, 3p78, 2p415, 2p442, 2p551 and 2p1130 clones, as well as 2p80 monospecific antibody, were captured using Protein A chip. A serial dilution of human CD40-his tag protein was injected over captured antibody for 2 mins at a flow rate of 30 μl/min. The antigen was allowed to dissociate for 6 min. All the experiments were carried out on a Biacore T200. Data analysis was carried out using the Biacore T200 evaluation software.

[9] = target: T6, human CD40 on the cell surface; assay: FACS, human dendritic cells, MFI

T6 sequence (P25942 21-277): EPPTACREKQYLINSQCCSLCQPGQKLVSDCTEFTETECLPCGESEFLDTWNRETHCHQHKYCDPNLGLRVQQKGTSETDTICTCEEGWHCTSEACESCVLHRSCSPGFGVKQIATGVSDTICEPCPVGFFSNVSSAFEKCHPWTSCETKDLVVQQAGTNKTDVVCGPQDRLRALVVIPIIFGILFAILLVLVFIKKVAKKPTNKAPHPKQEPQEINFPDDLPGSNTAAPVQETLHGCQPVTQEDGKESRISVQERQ
T3 sequence (P25942 21-193 limits assumed): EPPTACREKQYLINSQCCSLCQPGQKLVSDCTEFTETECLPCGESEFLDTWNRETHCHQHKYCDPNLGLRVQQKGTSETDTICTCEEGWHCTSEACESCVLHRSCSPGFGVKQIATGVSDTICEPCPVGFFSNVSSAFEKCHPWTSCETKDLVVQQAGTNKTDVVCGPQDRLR

| Binder | binding result [1] | EC50 [2] | EC50 [3] | binding result [4] | binding result [5] | EC50 (read off the curve) [6] | CD40 NF-κB luciferase reporter (Jurkat), RLU [7] | further results |
| --- | --- | --- | --- | --- | --- | --- | --- | --- |
| B1 | binds | – | – | – | – | – | – | – |
| B2 | binds | – | – | – | – | – | – | – |
| B3 | binds | – | – | – | – | – | – | – |
| B4 | – | 0.76 nM | 0.2 nM | no binding (tested: 100 nM (highest concentration)) | no binding (tested: 100 nM (highest concentration)) | ~0.2 nM | > 10 nM | – |
| B5 | – | 2.95 nM | 2.84 nM | no binding (tested: 100 nM (highest concentration)) | no binding (tested: 100 nM (highest concentration)) | ~2 nM | > 10 nM | – |
| B6 | – | 3.08 nM | 8.29 nM | no binding (tested: 100 nM (highest concentration)) | no binding (tested: 100 nM (highest concentration)) | – | > 10 nM | Kd [8]: 213 nM; koff [8]: 0.000293 s⁻¹; kon [8]: 1380 M⁻¹ s⁻¹ |
| B7 | – | 0.99 nM | 0.26 nM | no binding (tested: 100 nM (highest concentration)) | no binding (tested: 100 nM (highest concentration)) | ~0.2 nM | > 10 nM | – |
| B8 | binds | – | – | – | – | – | – | – |
| B9 | – | – | – | – | – | – | – | EC50 (read off the curve) [9]: ~0.5 nM |

Reference: patent publication US20240287208A1 (CONCEPT TO MEDICINE BIOTECH, published 2024)
